Measured values published in patent publication US20240327815A1 (Zymeworks, published 2024).

B1: REGN10933 (Casirivimab) (antibody, V domains shown)
VH: QVQLVESGGGLVKPGGSLRLSCAASGFTFSDYYMSWIRQAPGKGLEWVSYITYSGSTIYYADSVKGRFTISRDNAKSSLYLQMNSLRAEDTAVYYCARDRGTTMVPFDYWGQGTLVTVSS
VL: DIQMTQSPSSLSASVGDRVTITCQASQDITNYLNWYQQKPGKAPKLLIYAASNLETGVPSRFSGSGSGTDFTFTISGLQPEDIATYYCQQYDNLPLTFGGGTKVEIKR
B2: Etesevimab (antibody, V domains shown)
VH: EVQLVESGGGLVQPGGSLRLSCAASGFTVSSNYMSWVRQAPGKGLEWVSVIYSGGSTFYADSVKGRFTISRDNSMNTLFLQMNSLRAEDTAVYYCARVLPMYGDYLDYWGQGTLVTVSS
VL: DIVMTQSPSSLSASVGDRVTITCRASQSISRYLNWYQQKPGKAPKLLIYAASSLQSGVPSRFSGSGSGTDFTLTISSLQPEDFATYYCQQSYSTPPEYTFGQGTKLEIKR
B3: REGN10987 (Imdevimab) (antibody, V domains shown)
VH: QVQLVESGGGVVQPGRSLRLSCAASGFTFSNYAMYWVRQAPGKGLEWVAVISYDGSNKYYADSVKGRFTISRDNSKNTLYLQMNSLRTEDTAVYYCASGSDYGDYLLVYWGQGTLVTVSS
VL: QSALTQPASVSGSPGQSITISCTGTSSDVGGYNYVSWYQQHPGKAPKLMIYDVSKRPSGVSNRFSGSKSGNTASLTISGLQSEDEADYYCNSLTSISTWVFGGGTKLTVLR
B4: Bamlanivimab (antibody, V domains shown)
VH: QVQLVQSGAEVKKPGSSVKVSCKASGGTFSNYAISWVRQAPGQGLEWMGRIIPILGIANYAQKFQGRVTITADKSTSTAYMELSSLRSEDTAVYYCARGYYEARHYYYYYAMDVWGQGTAVTVSS
VL: not shown

Experiments:
[1] = target: Alpha SARS-CoV-2 spike on pseudotyped lentivirus (SARS-CoV-2, UniProt P0DTC2 14-1273); assay: cell-based or functional assay
[2] = target: P.1 (Gamma) SARS-CoV-2 spike protein, plate-coated (MSD) (SARS-CoV-2, UniProt P0DTC2 14-1208); assay: MSD competition vs labelled ACE2
[3] = target: Beta SARS-CoV-2 spike on pseudotyped lentivirus (SARS-CoV-2, UniProt P0DTC2 14-1273); assay: cell-based or functional assay

Row | Binder | Pseudovirus Neutralization (IC50, nM) [1] [nM] | IC50 [2] [nM] | Pseudovirus Neutralization (IC50, nM) [3] [nM]
1 | B1 | 0.05 |  | 
2 | B2 |  | 0.08 | 
3 | B3 | 0.13 |  | 41.1
4 | B4 | 1.9 |  | > 100
